Assay results from US20160263155A1, “T CELL RECEPTORS DIRECTED AGAINST THE PREFERENTIALLY EXPRESSED ANTIGEN OF MELANOMA AND USES THEREOF” (LEIDEN UNIVERSITY MEDICAL CENTER, priority 2015, published 2016).

System: chimeric Caspase-9 polypeptide
Assay: Caspase mutant classes and basal activity (Table 3)
Type: cell-based, human
Details: class heading of Table 3; for IC50: ligand IC50

Chain of chimeric Caspase-9 polypeptide (as listed by the source, change not shown): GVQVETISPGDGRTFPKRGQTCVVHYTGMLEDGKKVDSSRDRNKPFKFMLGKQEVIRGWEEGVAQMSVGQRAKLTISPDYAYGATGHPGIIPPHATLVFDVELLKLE

B1: F404Y (protein)
chain: GFGDVGALESLRGNADLAYILSMEPCGHCLIINNVNFCRESGLRTRTGSNIDCEKLRRRFSSLHFMVEVKGDLTAKKMVLALLELAQQDHGALDCCVVVILSHGCQASHLQFPGAVYGTDGCPVSVEKIVNIFNGTSCPSLGGKPKLFFIQACGGEQKDHGFEVASTSPEDESPGSNPEPDATPFQEGLRTFDQLDAISSLPTPSDIFVSYSTFPGFVSWRDPKSGSWYVETLDDIFEQWAHSEDLQSLLLRVANAVSVKGIYKQMPGCYNFLRKKLFFKTS
Basal Activity: Decreased
IC50: higher IC50

B2: N405F (protein)
chain: GFGDVGALESLRGNADLAYILSMEPCGHCLIINNVNFCRESGLRTRTGSNIDCEKLRRRFSSLHFMVEVKGDLTAKKMVLALLELAQQDHGALDCCVVVILSHGCQASHLQFPGAVYGTDGCPVSVEKIVNIFNGTSCPSLGGKPKLFFIQACGGEQKDHGFEVASTSPEDESPGSNPEPDATPFQEGLRTFDQLDAISSLPTPSDIFVSYSTFPGFVSWRDPKSGSWYVETLDDIFEQWAHSEDLQSLLLRVANAVSVKGIYKQMPGCFFFLRKKLFFKTS
Basal Activity: Decreased
IC50: much higher

B3: F406T (protein)
chain: GFGDVGALESLRGNADLAYILSMEPCGHCLIINNVNFCRESGLRTRTGSNIDCEKLRRRFSSLHFMVEVKGDLTAKKMVLALLELAQQDHGALDCCVVVILSHGCQASHLQFPGAVYGTDGCPVSVEKIVNIFNGTSCPSLGGKPKLFFIQACGGEQKDHGFEVASTSPEDESPGSNPEPDATPFQEGLRTFDQLDAISSLPTPSDIFVSYSTFPGFVSWRDPKSGSWYVETLDDIFEQWAHSEDLQSLLLRVANAVSVKGIYKQMPGCFNTLRKKLFFKTS
Basal Activity: Decreased
IC50: much higher

B4: F404T (protein)
chain: GFGDVGALESLRGNADLAYILSMEPCGHCLIINNVNFCRESGLRTRTGSNIDCEKLRRRFSSLHFMVEVKGDLTAKKMVLALLELAQQDHGALDCCVVVILSHGCQASHLQFPGAVYGTDGCPVSVEKIVNIFNGTSCPSLGGKPKLFFIQACGGEQKDHGFEVASTSPEDESPGSNPEPDATPFQEGLRTFDQLDAISSLPTPSDIFVSYSTFPGFVSWRDPKSGSWYVETLDDIFEQWAHSEDLQSLLLRVANAVSVKGIYKQMPGCTNFLRKKLFFKTS
Basal Activity: Decreased
IC50: much higher

B5: F406W (protein)
chain: GFGDVGALESLRGNADLAYILSMEPCGHCLIINNVNFCRESGLRTRTGSNIDCEKLRRRFSSLHFMVEVKGDLTAKKMVLALLELAQQDHGALDCCVVVILSHGCQASHLQFPGAVYGTDGCPVSVEKIVNIFNGTSCPSLGGKPKLFFIQACGGEQKDHGFEVASTSPEDESPGSNPEPDATPFQEGLRTFDQLDAISSLPTPSDIFVSYSTFPGFVSWRDPKSGSWYVETLDDIFEQWAHSEDLQSLLLRVANAVSVKGIYKQMPGCFNWLRKKLFFKTS
Basal Activity: Decreased
IC50: higher IC50

B6: D330A (protein)
chain: GFGDVGALESLRGNADLAYILSMEPCGHCLIINNVNFCRESGLRTRTGSNIDCEKLRRRFSSLHFMVEVKGDLTAKKMVLALLELAQQDHGALDCCVVVILSHGCQASHLQFPGAVYGTDGCPVSVEKIVNIFNGTSCPSLGGKPKLFFIQACGGEQKDHGFEVASTSPEDESPGSNPEPDATPFQEGLRTFDQLAAISSLPTPSDIFVSYSTFPGFVSWRDPKSGSWYVETLDDIFEQWAHSEDLQSLLLRVANAVSVKGIYKQMPGCFNFLRKKLFFKTS
Basal Activity: Decreased
IC50: higher IC50

B7: F406Y (protein)
chain: GFGDVGALESLRGNADLAYILSMEPCGHCLIINNVNFCRESGLRTRTGSNIDCEKLRRRFSSLHFMVEVKGDLTAKKMVLALLELAQQDHGALDCCVVVILSHGCQASHLQFPGAVYGTDGCPVSVEKIVNIFNGTSCPSLGGKPKLFFIQACGGEQKDHGFEVASTSPEDESPGSNPEPDATPFQEGLRTFDQLDAISSLPTPSDIFVSYSTFPGFVSWRDPKSGSWYVETLDDIFEQWAHSEDLQSLLLRVANAVSVKGIYKQMPGCFNYLRKKLFFKTS
Basal Activity: Decreased
IC50: higher IC50

B8: D330E (protein)
chain: GFGDVGALESLRGNADLAYILSMEPCGHCLIINNVNFCRESGLRTRTGSNIDCEKLRRRFSSLHFMVEVKGDLTAKKMVLALLELAQQDHGALDCCVVVILSHGCQASHLQFPGAVYGTDGCPVSVEKIVNIFNGTSCPSLGGKPKLFFIQACGGEQKDHGFEVASTSPEDESPGSNPEPDATPFQEGLRTFDQLEAISSLPTPSDIFVSYSTFPGFVSWRDPKSGSWYVETLDDIFEQWAHSEDLQSLLLRVANAVSVKGIYKQMPGCFNFLRKKLFFKTS
Basal Activity: Decreased
IC50: higher IC50

B9: F319W (protein)
chain: GFGDVGALESLRGNADLAYILSMEPCGHCLIINNVNFCRESGLRTRTGSNIDCEKLRRRFSSLHFMVEVKGDLTAKKMVLALLELAQQDHGALDCCVVVILSHGCQASHLQFPGAVYGTDGCPVSVEKIVNIFNGTSCPSLGGKPKLFFIQACGGEQKDHGFEVASTSPEDESPGSNPEPDATPWQEGLRTFDQLDAISSLPTPSDIFVSYSTFPGFVSWRDPKSGSWYVETLDDIFEQWAHSEDLQSLLLRVANAVSVKGIYKQMPGCFNFLRKKLFFKTS
Basal Activity: Decreased
IC50: much higher

B10: F404W (protein)
chain: GFGDVGALESLRGNADLAYILSMEPCGHCLIINNVNFCRESGLRTRTGSNIDCEKLRRRFSSLHFMVEVKGDLTAKKMVLALLELAQQDHGALDCCVVVILSHGCQASHLQFPGAVYGTDGCPVSVEKIVNIFNGTSCPSLGGKPKLFFIQACGGEQKDHGFEVASTSPEDESPGSNPEPDATPFQEGLRTFDQLDAISSLPTPSDIFVSYSTFPGFVSWRDPKSGSWYVETLDDIFEQWAHSEDLQSLLLRVANAVSVKGIYKQMPGCWNFLRKKLFFKTS
Basal Activity: Decreased
IC50: much higher

B11: F406A (protein)
chain: GFGDVGALESLRGNADLAYILSMEPCGHCLIINNVNFCRESGLRTRTGSNIDCEKLRRRFSSLHFMVEVKGDLTAKKMVLALLELAQQDHGALDCCVVVILSHGCQASHLQFPGAVYGTDGCPVSVEKIVNIFNGTSCPSLGGKPKLFFIQACGGEQKDHGFEVASTSPEDESPGSNPEPDATPFQEGLRTFDQLDAISSLPTPSDIFVSYSTFPGFVSWRDPKSGSWYVETLDDIFEQWAHSEDLQSLLLRVANAVSVKGIYKQMPGCFNALRKKLFFKTS
Basal Activity: Decreased
IC50: higher IC50

B12: A316G (protein)
chain: GFGDVGALESLRGNADLAYILSMEPCGHCLIINNVNFCRESGLRTRTGSNIDCEKLRRRFSSLHFMVEVKGDLTAKKMVLALLELAQQDHGALDCCVVVILSHGCQASHLQFPGAVYGTDGCPVSVEKIVNIFNGTSCPSLGGKPKLFFIQACGGEQKDHGFEVASTSPEDESPGSNPEPDGTPFQEGLRTFDQLDAISSLPTPSDIFVSYSTFPGFVSWRDPKSGSWYVETLDDIFEQWAHSEDLQSLLLRVANAVSVKGIYKQMPGCFNFLRKKLFFKTS
Basal Activity: Decreased
IC50: much higher

B13: S307A (protein)
chain: GFGDVGALESLRGNADLAYILSMEPCGHCLIINNVNFCRESGLRTRTGSNIDCEKLRRRFSSLHFMVEVKGDLTAKKMVLALLELAQQDHGALDCCVVVILSHGCQASHLQFPGAVYGTDGCPVSVEKIVNIFNGTSCPSLGGKPKLFFIQACGGEQKDHGFEVASTSPEDEAPGSNPEPDATPFQEGLRTFDQLDAISSLPTPSDIFVSYSTFPGFVSWRDPKSGSWYVETLDDIFEQWAHSEDLQSLLLRVANAVSVKGIYKQMPGCFNFLRKKLFFKTS
Basal Activity: Decreased
IC50: much higher

B14: D315A (protein)
chain: GFGDVGALESLRGNADLAYILSMEPCGHCLIINNVNFCRESGLRTRTGSNIDCEKLRRRFSSLHFMVEVKGDLTAKKMVLALLELAQQDHGALDCCVVVILSHGCQASHLQFPGAVYGTDGCPVSVEKIVNIFNGTSCPSLGGKPKLFFIQACGGEQKDHGFEVASTSPEDESPGSNPEPAATPFQEGLRTFDQLDAISSLPTPSDIFVSYSTFPGFVSWRDPKSGSWYVETLDDIFEQWAHSEDLQSLLLRVANAVSVKGIYKQMPGCFNFLRKKLFFKTS
Basal Activity: Decreased
IC50: much higher

B15: N405Q-T317Sco (protein, UniProt P55211 1-416, looked up, variant N405Q T317S)
chain: MDEADRRLLRRCRLRLVEELQVDQLWDALLSRELFRPHMIEDIQRAGSGSRRDQARQLIIDLETRGSQALPLFISCLEDTGQDMLASFLRTNRQAAKLSKPTLENLTPVVLRPEIRKPEVLRPETPRPVDIGSGGFGDVGALESLRGNADLAYILSMEPCGHCLIINNVNFCRESGLRTRTGSNIDCEKLRRRFSSLHFMVEVKGDLTAKKMVLALLELAQQDHGALDCCVVVILSHGCQASHLQFPGAVYGTDGCPVSVEKIVNIFNGTSCPSLGGKPKLFFIQACGGEQKDHGFEVASTSPEDESPGSNPEPDASPFQEGLRTFDQLDAISSLPTPSDIFVSYSTFPGFVSWRDPKSGSWYVETLDDIFEQWAHSEDLQSLLLRVANAVSVKGIYKQMPGCFQFLRKKLFFKTS
Basal Activity (marked *, predicted): Decreased

B16: N405Qco: Caspase-9 mutant (protein, UniProt P55211 1-416, looked up, variant N405Q)
chain: MDEADRRLLRRCRLRLVEELQVDQLWDALLSRELFRPHMIEDIQRAGSGSRRDQARQLIIDLETRGSQALPLFISCLEDTGQDMLASFLRTNRQAAKLSKPTLENLTPVVLRPEIRKPEVLRPETPRPVDIGSGGFGDVGALESLRGNADLAYILSMEPCGHCLIINNVNFCRESGLRTRTGSNIDCEKLRRRFSSLHFMVEVKGDLTAKKMVLALLELAQQDHGALDCCVVVILSHGCQASHLQFPGAVYGTDGCPVSVEKIVNIFNGTSCPSLGGKPKLFFIQACGGEQKDHGFEVASTSPEDESPGSNPEPDATPFQEGLRTFDQLDAISSLPTPSDIFVSYSTFPGFVSWRDPKSGSWYVETLDDIFEQWAHSEDLQSLLLRVANAVSVKGIYKQMPGCFQFLRKKLFFKTS
modifications: codon-optimized
notes: Caspase-9 mutant
Basal Activity: Decreased
IC50: higher IC50
